Laboratory results taken from the supplement of paper PMC10567573.
± gives the standard deviation.

Experiment: protein stability index of a GFP-peptide fusion (GPS, HEK-293T) (PSI 1-6); higher = more stable
Conditions: c terminus: a fixed tail appended
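Note: 24-mer peptide tiles fused after GFP, lentivirally expressed, FACS-sorted into six equal bins by GFP/DsRed ratio, decoded by Illumina sequencing, PSI is the read-weighted mean bin number.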

Sequence | protein stability index (treatment: DMSO) | protein stability index (treatment: MLN4924 1 uM, 8 h)
GTEFMQDPDEEHLKKSSQVPRTEA [PDLIM7] | 5.47 ± 0.12 | 5.23 ± 0.26
WETIRSFKDEWTQLDMFYRNWALK [AASDHPPT] | 2.14 ± 0.13 | 2.08 ± 0.32
FHLDVEDYLSGVLILASELSRLSV [TSN] | 3.06 ± 0.74 | 3.04 ± 0.48
ALHHVHTHLILHRDLKTQNILLDK [NEK8] | 2.25 ± 0.19 | 2.29 ± 0.25
PWAVDPAFAERYAPDKTSTVLTRH [PDLIM7] | 3.57 ± 0.24 | 3.56 ± 0.25
DALGMDPMMEHEMGGHHPGADYPV [CTNNB1] | 4.51 ± 0.36 | 4.55 ± 0.16
TCPSSSTASSISSSGGSSGSSSDN [DYRK1B] | 5.35 ± 0.16 | 5.48 ± 0.21
EDNEREGTENGAIDAVPVDENLFT [ZC3H15] | 5.54 ± 0.15 | 5.68 ± 0.23
FFYTAATNNPRFDKMEGNPICVQI [CRY1] | 2.92 ± 0.33 | 2.83 ± 0.67
ETQLKTLAQFPNTLLGNPKKRMRY [KCNA1] | 3.25 ± 0.46 | 3.61 ± 0.46
LELVKYLLAAGANVHATTATGDTA [ANKRD17] | 2.16 ± 0.25 | 2.08 ± 0.4
QTLSPDMQGAYCTFPASVLAPVPT [DUSP5] | 3.51 ± 0.32 | 3.51 ± 0.21
VKNVVSGGFPIIRDQIFRYVHDPE [FBXO3] | 2.53 ± 0.31 | 2.63 ± 0.38
GEGNSSQNSRNKRAVQGPEETVTQ [TNFSF13B] | 5.51 ± 0.2 | 5.47 ± 0.096
IVTTVTTVQSRPRIDGKLDSPSRS [C2CD2L] | 3.4 ± 0.19 | 3.49 ± 0.27
LEAGASAASTAAALENLQVEASCS [TRIM39] | 5.36 ± 0.2 | 5.3 ± 0.37
TVEDLFYNIATRRKALKNPSEEYG [MLH1] | 3.02 ± 0.8 | 3.06 ± 0.1
FFSVIFMTVGILSNSLAIAILMKA [PTGFR] | 3.12 ± 0.26 | 2.75 ± 0.5
RTTVHDKSAHQTHSSWTPPNAQYW [DNAJC4] | 2.99 ± 0.32 | 3.02 ± 0.33

Sequence | protein stability index (treatment: DMSO) | protein stability index (treatment: MLN4924 1 uM, 8 h)
GEKPYECVQCGKSYSQSSNLFRHQ [ZNF24] | 2.4 ± 0.62 | 2.83 ± 0.56
SSREVFTSSSSSSSRQTRPILKEQ [KRT16] | 4.67 ± 0.11 | 4.7 ± 0.3
KRRQLEDERRQLQHLKSKALRERW [PALM] | 3.93 ± 0.3 | 4.22 ± 0.57
STNRRRLSELLRYHTSQSGDEMTS [HSP90AB1] | 3.85 ± 0.15 | 4.11 ± 0.12
FSFSMKGHEKTAKSKTRSLLKRME [DLC1] | 2.84 ± 0.24 | 3.06 ± 0.23
RQLEIMGKEVSGDQIEDMFEQGKW [STX11] | 3.73 ± 0.13 | 3.56 ± 0.2
RRQCRPEIRMWQTREKAKFSDGEK [PHTF1] | 3.87 ± 0.29 | 4.23 ± 0.051
EAMLYHNQTAELRELLEFTHMYLQ [P3H4] | 2.48 ± 0.37 | 2.69 ± 0.62
DDTPEVLNRALSNLSSRWKNWWVR [CDS2] | 2.89 ± 0.058 | 3.12 ± 0.25
FPKQILDQNNVIENEETGEFSIDN [MIA2] | 5.136 ± 0.027 | 5.06 ± 0.24
PRSGEQAEGSPGGPGDSQGRKRRQ [CDKN1A] | 5.56 ± 0.16 | 5.48 ± 0.27
GHMDDGGYSMNFNMSSSRGPLPVK [RBMX] | 4.05 ± 0.21 | 3.95 ± 0.24
NYYRTWNVVVHDWLYYYAYKDFLW [SOAT1] | 3.73 ± 0.5 | 2.94 ± 0.34
EFEAVVRQAELAIERCIFPERIYQ [PI4K2A] | 2.43 ± 0.37 | 2.33 ± 0.41
TRLQDCYVDSPALTNIWMARTCAK [C22orf31] | 2.47 ± 0.2 | 2.69 ± 0.11
GIQPGQEPPVTMIFMGYQNVEDEA [PALM] | 3.94 ± 0.35 | 4.02 ± 0.24
QEQLSLSQRQAKELKLEQQEAAER [LRRC45] | 5.5 ± 0.19 | 5.67 ± 0.22
KSNFRVQLFEDPTVDKEVEIRKKV [MNAT1] | 4.65 ± 0.33 | 4.69 ± 0.38
LQLLQSRTSRKFLACRLTPDMETK [INTS3] | 2.69 ± 0.18 | 2.68 ± 0.2
